T1: H-2K^b molecules on RMA-S cells (mouse, UniProt P01901 22-369; P01887 21-119)
T1 construct: whole, on cells
T1 sequence (MHC heavy): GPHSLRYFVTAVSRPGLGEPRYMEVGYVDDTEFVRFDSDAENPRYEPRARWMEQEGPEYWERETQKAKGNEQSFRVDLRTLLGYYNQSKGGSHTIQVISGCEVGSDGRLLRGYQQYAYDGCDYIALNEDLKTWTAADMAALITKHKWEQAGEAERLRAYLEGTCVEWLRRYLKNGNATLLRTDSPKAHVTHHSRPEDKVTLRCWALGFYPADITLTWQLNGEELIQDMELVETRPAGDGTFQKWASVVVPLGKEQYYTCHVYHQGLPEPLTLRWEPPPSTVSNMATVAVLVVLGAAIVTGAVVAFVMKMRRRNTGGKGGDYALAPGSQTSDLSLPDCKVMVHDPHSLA
T1 sequence: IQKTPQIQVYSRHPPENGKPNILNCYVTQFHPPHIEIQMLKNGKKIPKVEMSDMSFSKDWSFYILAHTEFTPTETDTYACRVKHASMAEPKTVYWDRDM

T2: H-2D^b molecules on RMA-S cells (mouse, UniProt P01899 25-362; P01887 21-119)
T2 construct: whole, on cells; also called MHC class I
T2 sequence (MHC heavy, looked up): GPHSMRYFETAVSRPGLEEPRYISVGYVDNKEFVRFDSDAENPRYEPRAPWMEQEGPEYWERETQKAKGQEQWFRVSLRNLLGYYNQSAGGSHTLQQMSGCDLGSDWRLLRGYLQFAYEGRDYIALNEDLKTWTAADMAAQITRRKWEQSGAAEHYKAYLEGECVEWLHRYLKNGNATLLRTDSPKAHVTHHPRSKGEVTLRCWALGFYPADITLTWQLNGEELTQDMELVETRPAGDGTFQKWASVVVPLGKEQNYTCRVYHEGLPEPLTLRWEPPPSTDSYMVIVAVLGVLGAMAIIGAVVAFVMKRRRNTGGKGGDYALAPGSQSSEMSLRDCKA
T2 sequence (looked up): T1 sequence

B1: native E7 peptide (HPV 16 E7 protein, amino acid 49-57, H-2D^b restricted CTL epitope) (peptide)
peptide: RAHYNIVTF
notes: Synthetic free peptide, added at 10 uM to RMA-S cells; also called E7 antigen
B2: KSS-E7 peptide (KSS (lysine-serine-serine)-elongated E7 peptide without the lipid chain) (peptide)
peptide: KSSRAHYNIVTF
notes: Not lipidated; added at 10 uM to RMA-S cells; also called KSS-elongated E7 peptide

Assays:
[1] = target: T1, H-2K^b molecules on RMA-S cells; test: RMA-S MHC class I stabilisation assay, flow cytometry with anti-H-2K^b antibody
[2] = target: T2, H-2D^b molecules on RMA-S cells; test: RMA-S MHC class I stabilisation assay, 10 µM peptide, flow cytometry with anti-H-2D^b antibody, medium control
Experimental: We evaluated the MHC class I binding affinity of native and KSS-elongated E7 peptides. RMA-S cells, a mouse lymphoma cell line at a concentration of 5×10⁵ cells/ml were incubated overnight at 27° C. with native E7 or KSS-E7 peptide (10 μM). Cells incubated with medium were used as a control. Cells were then incubated for 2 h at 37° C. After washes, cells were stained with fluorescently conjugated monoclonal antibodies against H-2D^b or H-2K^b molecules on the cell surface prior to flow cytometry analysis.

Binder | binding result [1] | fold up-regulation of H-2D^b molecules on RMA-S cells compared to the control [2] [fold] | fold increase in the mean fluorescence (H-2D^b on RMA-S cells) [2] [fold]
B1 | no binding (tested: 10 µM) | 4 | 
B2 | no binding (tested: 10 µM) |  | 8
